Test results published in patent US20250009854A1 (MACFARLANE BURNET INSTITUTE FOR MEDICAL RESEARCH AND PUBLIC …, published 2025).
Residue numbers refer to the chain shown, from its start.

Columns and labels:
[1] = molecular target: T1, dimeric rsFcγRIIa (H131 allelic form) (UniProt P12318 34-217); experiment: flow cytometry, biotinylated dimeric rsFcγRIIa + streptavidin-APC on Ramos-S cells opsonised with 5 µg/ml ACE2-Fc
T1 construct: also called dimeric recombinant soluble FcγRIIa
T1 sequence: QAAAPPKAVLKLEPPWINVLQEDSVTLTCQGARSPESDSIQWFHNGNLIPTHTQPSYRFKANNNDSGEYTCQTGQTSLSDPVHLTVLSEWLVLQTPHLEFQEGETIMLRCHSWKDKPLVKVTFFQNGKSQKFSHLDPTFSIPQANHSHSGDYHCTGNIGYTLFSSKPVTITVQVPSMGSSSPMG

[2] = molecular target: T2, dimeric rsFcγRIIIa (V158 form) (UniProt P08637 17-208); experiment: flow cytometry, biotinylated dimeric rsFcγRIIIa + streptavidin-APC on Ramos-S cells opsonised with 5 µg/ml ACE2-Fc
T2 construct: also called dimeric recombinant soluble FcγRIIIa

[3] = molecular target: T1, dimeric rsFcγRIIa (H131 allelic form); experiment: flow cytometry, biotinylated dimeric rsFcγRIIa + streptavidin-APC on Ramos-S cells opsonised with ACE2-Fc
[4] = molecular target: T3, SARS-CoV-2 spike protein on Ramos-S cells (SARS-CoV-2, UniProt P0DTC2 14-1273); experiment: flow cytometry on Ramos-S cells, FITC anti-hIgG-Fc
T3 construct: whole, on cells

T2 sequence (P08637 17-208 F176V limits assumed): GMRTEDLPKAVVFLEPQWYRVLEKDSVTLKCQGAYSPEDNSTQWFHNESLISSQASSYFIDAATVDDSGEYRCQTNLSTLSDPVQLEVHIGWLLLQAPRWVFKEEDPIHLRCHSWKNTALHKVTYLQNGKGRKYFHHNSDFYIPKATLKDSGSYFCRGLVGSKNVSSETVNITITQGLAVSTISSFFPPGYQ

B1: EflACE2-Fc-[change] (Fc fusion)
chain: ETGSTIEEQAKYFLDKFNHEAEDLFYQSSLASWNYNTNITEENVQNMNNAGDKWSAFLKEQSTTAQMYPLQEIQNLTVKLQLQALQQNGSSVLSEDKSKRLNTILNTMSTIYSTGKVCNPDNPQECLLLEPGLNEIMANSLDYNERLWAWESWRSEVGKQLRPLYEEYVVLKNEMARANHYEDYGDYWRGDYEVNGVDGYDYSRGQLIEDVEHTFEEIKPLYEHLHAYVRAKLMNAYPSYISPIGCLPAHLLGDMWGRFWTNLYSLTVPFGQKPNIDVTDAMVDQAWDAQRIFKEAEKFFVSVGLPNMTQGFWEYSMLTDPGNVQKAVCHPTAWDLGKGDFRILMCTKVTMDDFLTAHHEMGHIQYDMAYAAQPFLLRNGANEGFHEAVGEIMSLSAATPKHLKSIGLLSPDFQEDNETEINFLLKQALTIVGTLPFTYMLEKWRWMVFKGEIPKDQWMKKWWEMKREIVGVVEPVPHDETYCDPASLFHVSNDYSFIRYYTRTLYQFQFQEALCQAAKHEGPLHKCDISNSTEAGQKLFNMLRLGKSEPWTLALENVVGAKNMNVRPLLNYFEPLFTWLKDQNKNSFVGWSTDWSPYADQSIKVRISLKSALGDRAYEWNDNEMYLFRSSVAYAMRQYFLKVKNQMILFGEEDVRVANLKPRISFNFFVTAPKNVSDIIPRTEVEKAIRMSRSRINDAFRLNDNSLEFLGIQPTLGPPNQPPVSGGGGSTHTCPPCPAPELLGGPSVFLFPPKPKDTLMISRTPEVTCVVVDVSHEDPEVKFNWYVDGVEVHNAKTKPREEQYNSTYRVVSVLTVLHQDWLNGKEYKCKVSNKALPAPIEKTISKAKGQPREPQVYTLPPSREEMTKNQVSLTCLVKGFYPSDIAVEWESNGQPENNYKTTPPVLDSDGSFFLYSKLTVDKSRWQQGNVFSCSVMFEALHNHYTQKSLSLSPGK
- binding result [1]: binds
- binding result [2]: binds

B2: EflACE2-Fc-[change] (Fc fusion)
chain: B1 chain with F937Y
- binding result [3]: no binding (tested: 5 µg/ml ACE2-Fc for opsonisation)

B3: CC40.8-WT mAb (antibody, V domains shown)
VH: EVQLLESGGGLVQPGGSLRLSCAASGFTFSSYVMTWARQAPGKGLEWVSAISGTGYTYYADSVKGRFTVSRDNSKNTLFLQMSSLRAEDTAVYYCAITMAPVVWGQGTTVTVSS
VL: SYELTQPPSVSVSPGQTARITCSGDALPKRYAYWYQQKSGQAPILVIYEDKKRPSGIPERLSGSKSGTVATLTISGAQVEDEADYYCYSTDSSGNHAVFGGGTQLTVLG
- binding result [4]: binds

B4: S2P6-WT mAb (antibody, V domains shown)
VH: EVQLVQSGAEVKKPGASVKVSCKASGYTFTSQYMHWVRQAPGQGLEWIGIINPSGVHTSYAQKFQGRVTLTRDTSTSTLYMELSSLRSEDTAVYYCARGSPKGAFDYWGQGTLVTVSS
VL: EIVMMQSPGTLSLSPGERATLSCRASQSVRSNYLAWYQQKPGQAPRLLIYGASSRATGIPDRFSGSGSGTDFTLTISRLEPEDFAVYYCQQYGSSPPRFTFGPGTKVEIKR
- binding result [4]: binds
